US20260109774A1 (JUNO THERAPEUTICS, published 2026)
Each block holds one binder with its values, some of them ahead of it.

Legend:
[1] = target: T1, BCMA-Fc (soluble human BCMA fused at its C-terminus to an Fc region of IgG) (human, UniProt Q02223 1-54); assay: flow cytometry, T cells transduced with Non-SSE construct, CD8 gate, recombinant BCMA-Fc (rBCMA) staining against surrogate marker
T1 construct: also called hBCMA-Fc; hBMCA-Fc
T1 sequence: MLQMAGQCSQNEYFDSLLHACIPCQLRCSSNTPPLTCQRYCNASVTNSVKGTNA
Description: (§1) Lentiviral constructs containing anti-BCMA CAR-encoding polynucleotides with starting and optimized sequences, respectively, as described in Example 3, were transduced into T cells and transduced cells were analyzed for transduction (based on expression of a surrogate marker) and for CAR expression based on binding to recombinant BCMA-Fc fusion protein by flow cytometry.

[2] = target: T1, BCMA-Fc (soluble human BCMA fused at …); assay: flow cytometry, T cells transduced with O/SSE construct, CD4 gate, recombinant BCMA-Fc (rBCMA) staining against surrogate marker
Description: as §1

[3] = target: T1, BCMA-Fc (soluble human BCMA fused at …); assay: flow cytometry, T cells transduced with Non-SSE construct, CD4 gate, recombinant BCMA-Fc (rBCMA) staining against surrogate marker
Description: as §1

[4] = target: T1, BCMA-Fc (soluble human BCMA fused at …); assay: flow cytometry, T cells transduced with O/SSE construct, CD8 gate, recombinant BCMA-Fc (rBCMA) staining against surrogate marker
Description: as §1

[5] = target: T2, human B-cell maturation antigen (BCMA) on cells (human, UniProt Q02223 1-184); assay: flow cytometry on BCMA-expressing HEK293 cells vs control cells, crude lysate or bacterial supernatant; clone listed in Table E2
T2 construct: Recombinant on HEK293 or K562 cells, or endogenous on cell lines (H929, RPMI 8226, OPM2, MM1S, Daudi); also called hBCMA; huBCMA
T2 chain: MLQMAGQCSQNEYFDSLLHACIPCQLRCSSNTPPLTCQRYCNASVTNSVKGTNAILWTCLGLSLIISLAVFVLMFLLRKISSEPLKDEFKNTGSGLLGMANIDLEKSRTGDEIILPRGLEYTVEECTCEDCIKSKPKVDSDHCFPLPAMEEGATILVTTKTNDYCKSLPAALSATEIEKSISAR
Description: Specific binding of resulting scFv clones to BCMA-expressing HEK293 cells, as compared to control cells not expressing BCMA, was assessed by flow cytometry either with in vitro translated crude cell lysate or with bacterially-produced supernatant.

B1: BCMA-25-LS CAR (other)
chain: EVQLVQSGGGLVQPGRSLRLSCTASGFTFGDYAMSWFRQAPGKGLEWVGFIRSKAYGGTTEYAASVKGRFTISRDDSKSIAYLQMNSLKTEDTAVYYCAAWSAPTDYWGQGTLVTVSSGGGGSGGGGSGGGGSDIQMTQSPAFLSASVGDRVTVTCRASQGISNYLAWYQQKPGNAPRLLIYSASTLQSGVPSRFRGTGYGTEFSLTIDSLQPEDFATYYCQQSYTSRQTFGPGTRLDIKESKYGPPCPPCPAPPVAGPSVFLFPPKPKDTLMISRTPEVTCVVVDVSQEDPEVQFNWYVDGVEVHNAKTKPREEQFQSTYRVVSVLTVLHQDWLNGKEYKCKVSNKGLPSSIEKTISKAKGQPREPQVYTLPPSQEEMTKNQVSLTCLVKGFYPSDIAVEWESNGQPENNYKTTPPVLDSDGSFFLYSRLTVDKSRWQEGNVFSCSVMHEALHNHYTQKSLSLSLGKMFWVLVVVGGVLACYSLLVTVAFIIFWVKRGRKKLLYIFKQPFMRPVQTTQEEDGCSCRFPEEEEGGCELRVKFSRSADAPAYQQGQNQLYNELNLGRREEYDVLDKRRGRDPEMGGKPRRKNPQEGLYNELQKDKMAEAYSEIGMKGERRRGKGHDGLYQGLSTATKDTYDALHMQALPPR
notes: Chimeric antigen receptor; signal peptide left out; also called BCMA-25-LS-O/SSE CAR; BCMA-25-L CAR
% of cells in Q1 (rBCMA+ marker-) [1]: 0.37%
% of cells in Q3 (rBCMA- marker+) [1]: 29.4%
% of cells in Q4 (rBCMA- marker-) [1]: 52.5%
% of cells in Q1 (rBCMA+ marker-) [2]: 2.36%
% of cells in Q3 (rBCMA- marker+) [2]: 10.4%
% of cells in Q4 (rBCMA- marker-) [2]: 22.3%
% of cells in Q1 (rBCMA+ marker-) [3]: 0.31%
% of cells in Q3 (rBCMA- marker+) [3]: 30.5%
% of cells in Q4 (rBCMA- marker-) [3]: 51.3%
% of cells in Q1 (rBCMA+ marker-) [4]: 1.37%
% of cells in Q3 (rBCMA- marker+) [4]: 17.5%
% of cells in Q4 (rBCMA- marker-) [4]: 19.4%

B2: BCMA-52-LS CAR (other)
chain: SYELTQPPSASGTPGQRVTMSCSGTSSNIGSHSVNWYQQLPGTAPKLLIYTNNQRPSGVPDRFSGSKSGTSASLAISGLQSEDEADYYCAAWDGSLNGLVFGGGTKLTVLGSRGGGGSGGGGSGGGGSLEMAEVQLVQSGAEVKKPGESLKISCKGSGYSFTSYWIGWVRQMPGKGLEWMGIIYPGDSDTRYSPSFQGHVTISADKSISTAYLQWSSLKASDTAMYYCARYSGSFDNWGQGTLVTVSSESKYGPPCPPCPAPPVAGPSVFLFPPKPKDTLMISRTPEVTCVVVDVSQEDPEVQFNWYVDGVEVHNAKTKPREEQFQSTYRVVSVLTVLHQDWLNGKEYKCKVSNKGLPSSIEKTISKAKGQPREPQVYTLPPSQEEMTKNQVSLTCLVKGFYPSDIAVEWESNGQPENNYKTTPPVLDSDGSFFLYSRLTVDKSRWQEGNVFSCSVMHEALHNHYTQKSLSLSLGKMFWVLVVVGGVLACYSLLVTVAFIIFWVKRGRKKLLYIFKQPFMRPVQTTQEEDGCSCRFPEEEEGGCELRVKFSRSADAPAYQQGQNQLYNELNLGRREEYDVLDKRRGRDPEMGGKPRRKNPQEGLYNELQKDKMAEAYSEIGMKGERRRGKGHDGLYQGLSTATKDTYDALHMQALPPR
notes: Chimeric antigen receptor on T cells; also called BCMA-52-LS-O/SSE CAR; BCMA-52-L CAR
% of cells in Q1 (rBCMA+ marker-) [1]: 2.88%
% of cells in Q3 (rBCMA- marker+) [1]: 24.3%
% of cells in Q4 (rBCMA- marker-) [1]: 41.1%
% of cells in Q1 (rBCMA+ marker-) [2]: 3.66%
% of cells in Q3 (rBCMA- marker+) [2]: 3.85%
% of cells in Q4 (rBCMA- marker-) [2]: 22.9%
% of cells in Q1 (rBCMA+ marker-) [3]: 1.71%
% of cells in Q3 (rBCMA- marker+) [3]: 19.5%
% of cells in Q4 (rBCMA- marker-) [3]: 42.5%
% of cells in Q1 (rBCMA+ marker-) [4]: 3.89%
% of cells in Q3 (rBCMA- marker+) [4]: 5.38%
% of cells in Q4 (rBCMA- marker-) [4]: 28.3%

B3: BCMA-42 scFv (scFv)
scFv: EVQLLESGGGLVQPGRSLRLSCTASGFTFGDYAMSWFRQAPGKGLEWVGFIRSKAYGGTTEYAASVKGRFTISRDDSKSIAYLQMNSLKTEDTAVYYCAAWSAPTDYWGQGTLVTVSSGGGGSGGGGSGGGGSDIQMTQSPSLVSASVGDRVTITCRASQGIGNGLAWYQQKPGKAPKLLLFAASRLESGVPSRFSGSRSGTDYTLTISSLQPEDVATYYCQQYVEDALTFGGGTKVDIK
binding result [5]: binds

B4: BCMA-35 scFv (scFv)
scFv: EVQLVQSGGGLVKPGGSLRLSCAASGFTFSDYYMSWIRQAPGKGLEWVSYISSSGSTIYYADSVKGRFTISRDNAKNSLYLQMNSLRAEDTAVYYCARVDGDYDDYWGQGTLVTVSSGGGGSGGGGSGGGGSNFMLTQPPSVSVAPGQTARITCGANNIGSKSVHWYQQKPGQAPMLVVYDDDDRPSGIPERFSGSNSGNTATLTISGVEAGDEADYFCHLWDRSRDHYVFGTGTKLDIK
binding result [5]: binds

B5: BCMA-51 scFv (scFv)
scFv: EVQLVQSGGGLVQPGRSLRLSCTASGFTFGDYAMSWFRQAPGKGLEWVGFIRSKAYGGTTEYAASVKGRFTISRDDSKSIAYLQMNSLKTEDTAVYYCAAWSAPTDYWGQGTLVTVSSGGGGSGGGGSGGGGSAIQLTQSPSTLSASVGDRVAITCRASQNIGDWLAWYQQKPGKAPKLLIFGASILESGVPSRFSGSGSGTDFTLTISSLQPEDVAVYYCQKYDGAPPWTFGQGTKVEIK
binding result [5]: binds

Further lines, results first:

binding result [5]: binds
B6: BCMA-49 scFv (scFv)
scFv: QVQLVESGGGLVKPGGSLRLSCAASGFTFSDYYMSWIRQAPGKGLEWVSYISSSGSTIYYADSVKGRFTISRDNAKNSLYLQMNSLRAEDTAVYYCAKVDGPPSFDIWGQGTMVTVSSGGGGSGGGGSGGGGSLPVLTQPPSVSVAPGKTARITCGGDQIGRKSVHWYQQKPGQAPVLVMSYDSDRPSGIPERFSGSNSGNTATLTISRVEAGDEAAYYCQVWDSSTGQYVVFGGGTKLTVL

binding result [5]: binds
B7: BCMA-48 scFv (scFv)
scFv: EVQLVESGGGLVKPGGSLRLSCAASGFTFSDYYMSWIRQAPGKGLEWVSYISSSGSTIYYADSVKGRFTISRDNAKNSLYLQMNSLRAEDTAVYYCAKVDGPPSFDIWGQGTMVTVSSGGGGSGGGGSGGGGSQPVLTQPPSVSVAPGKTATITCGGNNIGSKSVHWYQRKPGQGPVVVIQYDTDRPSGIPERFSGSNSGNTATLTISRVEAGDEGDYYCQVWDSSSDHWVFGGGTKLTVL

binding result [5]: binds
B8: BCMA-37 scFv (scFv)
scFv: EVQLVQSGGGLVKPGGSLRLSCAASGFTFSDYYMSWIRQAPGKGLEWVSYISSSGSTIYYADSVKGRFTISRDNAKSSLYLQMNSLRAEDTAVYYCARVDGDYVDDYWGQGTLVTVSSGGGGSGGGGSGGGGSQLVLTQEPSLTVSPGGTVTLTCGSSTGAVTNGHSPYWFQQKPGQAPRTLIYDTTNRHSWTPARFSGSLLGGKAALTLSGAQPEDEAEYYCSLSHAGDRVFFGGGTKLTVL

binding result [5]: binds
B9: BCMA-41 scFv (scFv)
scFv: QVQLVQSGGGLVKPGGSLRLSCAASGFTFSDYYMSWIRQAPGKGLEWVSYISSSGNTIYYADSVKGRFTISRDNAKNSLYLQMNSLRAEDTAVYYCAKVDGDYVDDYWGQGTLVTVSSGGGGSGGGGSGGGGSQPVLTQPPSVSGTPGQRVTIPCSGSSSNIGGNSVDWFQEVPGTAPKLLIYANDRRPSGVPDRFSGTKSGTSASLAIRGLQSDDDAHYYCESWDDALNGHVFGGGTKLTVL

binding result [5]: binds
B10: BCMA-45 scFv (scFv)
scFv: QVQLVQSGGGLVQPGRSLRLSCTASGFTFGDYAMSWFRQAPGKGLEWVGFIRSKAYGGTTEYAASVKGRFTISRDDSKSIAYLQMNSLKTEDTAVYYCAAWSAPTDYWGQGTLVTVSSGGGGSGGGGSGGGGSAIRMTQSPSSLSASVGDRVTITCRASQGIGRSLAWYKQKPGGVPQLLIHDASSLRSGVPSRFSGSGSGTEFTLTISGVQSEDSATYHCQQLNGYPWTFGQGTKVDIK

binding result [5]: binds
B11: BCMA-36 scFv (scFv)
scFv: QVQLVQSGGGLVKPGGSLRLSCAASGFTFSDYYMSWIRQAPGKGLEWVSYISSSGSTIYYADSVKGRFTISRDNAKNSLYLQMNSLRAEDTAVYYCARVDGDYVDDYWGQGTLVTVSSGGGGSGGGGSGGGGSQSVLTQEPSLTVSPGETVTLTCGSSTGPVTSAHSPSWFQKKPGQAPTTLIYETTNRHSWTPARFSGSLLGGKAALTLSGAQPEDEADYYCLLSSGDARMVFGGGTKLTVL

binding result [5]: binds
B12: BCMA-38 scFv (scFv)
scFv: QVQLVQSGGGLVKPGGSLRLSCAASGFTFSDYYMSWIRQAPGKGLEWVSYISSSGSTIYYADSVKGRFTISRDNAKNSLYLQMNSLRAEDTAVYYCARVDGDYVDDYWGQGTLVTVSSGGGGSGGGGSGGGGSQAVLTQEPSLTVSPGGTVTLTCGSSTGAVTNGHSPYWFQQKPGQAPRTLIYDTNNRHSWTPARFSGSLLGGKAALTLSGAQPEDEADYFCLLSYSDARLAFGGGTKLTVL
